This note sets out measurements from patent US20070244297A1.

Read-outs that look alike come from different tables or passages of the source.

Experiment [1] concerns the target human neuronal calcium channel α1B-1 subunit (expressed alone) (human), Q00975.
The target in experiment [2] is T1, recombinant human neuronal calcium channel α1B-1α2b (human).
Experiment [3] addresses T1, recombinant human neuronal calcium …. Kind of experiment: 125I-ω-CgTx GVIA saturation binding to transiently transfected HEK293 cells.
The target of experiment [4] is T2, recombinant human neuronal calcium channel α1B-1α2bβ1-2 (human), Q00975. The description is as above.
Experiment [5] deals with recombinant human neuronal calcium channel α1B-1α2bβ1-3 (human). Described as above.
The target in experiment [6] is recombinant human neuronal calcium channel α1B-1β1-2 (human), Q00975. Described as above.
For experiment [7], the target named is recombinant human neuronal calcium channel α1B-1β1-3 (human), Q00975. The experiment is described as above.
Experiment [8] addresses recombinant human neuronal calcium channel α1B-2α2bβ1-2 (human). Described as above.
The target of experiment [9] is recombinant human neuronal calcium channel α1B-2α2bβ1-3 (human), Q00975. The experiment is described as above.
Experiment [10] addresses recombinant human neuronal calcium channel α1B-2β1-2 (human), Q00975. The description is as above.
Experiment [11] concerns the target recombinant human neuronal calcium channel α1B-2β1-3 (human), Q00975. The experiment is described as above.
Experiment [12] deals with T2, recombinant human neuronal calcium ….

Regarding CKSPGSSCSPTSYNCCRSCNPYTKRCYG (modifications not checked) [125I-ω-CgTx GVIA, P01522 46-73], in [1], the Bmax was determined as 757 sites/cell and the equilibrium dissociation constant (Kd) worked out at 31.7 pM. Also, in experiment [2], the Bmax worked out at 2260 sites/cell and the Kd came to 84.6 pM. Also, in [3], the fold change of binding capacity against α1B-1 alone was determined as 3 fold. Besides, in experiment [4], the Bmax was 45300 sites/cell, the Kd came out at 54.9 pM, the fold change of binding sites per cell against α1B-2α2bβ1-2 was 2.5 fold and the fold change of surface receptor density against α1B-1β1-2 came out at 8 fold. In addition, in experiment [5], the Bmax stood at 91000 sites/cell, the Kd amounted to 53.2 pM, the fold change of binding capacity against α1B-1α2bβ1-2 is 2 fold and the fold change of binding sites per cell against α1B-2α2bβ1-3 turned out to be 2.5 fold. For the same molecule, the fold change of surface receptor density against α1B-1β1-3 in experiment [5] was found to be 10 fold. In addition, in experiment [6], the Bmax worked out at 5760 sites/cell, the Kd came out at 17.9 pM and the fold change of surface binding against α1B-1 alone was found to be 8 fold. In addition, in experiment [7], the Bmax was 8730 sites/cell, the Kd is 17.9 pM and the fold change of surface binding against α1B-1 alone was 10 fold. Also, in experiment [8], the Bmax is 19400 sites/cell, the Kd is 53 pM and the fold change of surface receptor density against α1B-2β1-2 is 9 fold. In [9], the Bmax was 37700 sites/cell, the equilibrium dissociation constant (Kd) was 44.3 pM, the fold change of binding capacity against α1B-2α2bβ1-2 stood at 2 fold and the fold change of surface receptor density against α1B-2β1-3 stood at 13 fold. Further, in [10], the Bmax stood at 2130 sites/cell and the Kd was found to be 16.4 pM. Also, in experiment [11], the Bmax came to 2940 sites/cell and the Kd amounted to 22.2 pM.
As for CKSPGSSCSPTSYNCCRSCNPYTKRCYG (modifications not checked) [ω-CgTx, P01522 46-73], in [12], the Kd turned out to be 54.6 pM and the binding capacity (Bmax) (sites per cell) was 28700.

What is called Kd is the constant that tells how readily two partners part at equilibrium.
